Data set [1] concerns the target T1, LeuT (Aquifex aeolicus, UniProt O67854). The data set can be described thus: displacement of [3H]leucine binding.
The target of data set [2] is T1, LeuT. The data set can be described thus: direct radioligand binding.
Data set [3] addresses T1, LeuT. The data set is described as follows: X-ray crystal structure, anomalous difference Fourier. The following applies: primary substrate site. The class given is binding.
In a further data set the test system is NCC(=O)O. The data set is described as follows: purified protein. The settings on record: transport.
Data set [4] relates to N[C@@H](Cc1ccc(O)cc1)C(=O)O. The data set is described as follows: purified protein. The following applies: transport.
The subject of another data set is CSCC[C@H](N)C(=O)O. The data set is described as follows: purified protein. The settings on record: transport.
The test system of another data set is CC(C)C[C@H](N)C(=O)O. The data set is described as follows: purified protein. The settings on record: transport.

`NCC(=O)O` [Glycine] came in with a Ki at LeuT [1] of 322 µM.

In turn, `CSCC[C@H](N)C(=O)O` [Methionine] had a Ki on LeuT [1] of 0.232 ± 0.021 µM. Further, at LeuT [2], binding was characterised by a dissociation constant (Kd) of 69 ± 8 nM.

On LeuT [1], `N[C@@H](Cc1ccc(O)cc1)C(=O)O` [Tyrosine] gave a Ki of 9.04 ± 0.55 µM.

For `C[Se]CC[C@H](N)C(=O)O` [selenomethionine], the “X-ray crystal structure, anomalous difference Fourier” value at LeuT [3] is given as “We also measured diffraction data on a LeuT-selenomethionine complex”.

As to LeuT (Aquifex aeolicus VF5), the Km in the data set on NCC(=O)O amounted to 1910 ± 30 nM; in data set [4] it was 2830 ± 150 nM; in the data set on CSCC[C@H](N)C(=O)O it was 289 ± 27 nM; in the data set with CC(C)C[C@H](N)C(=O)O it was 146 ± 25 nM. Also, the Vmax with NCC(=O)O was 0.000444 µmol/min/mg; in data set [4] it was 0.000209 µmol/min/mg; with CSCC[C@H](N)C(=O)O it was 0.000523 µmol/min/mg; in the data set with CC(C)C[C@H](N)C(=O)O, 0.000343 µmol/min/mg. The kcat came out at 0.000439 ± 5.56e-05 s⁻¹ in the data set on NCC(=O)O, 0.000206 ± 1.39e-05 s⁻¹ in data set [4], 0.000517 ± 1.11e-05 s⁻¹ with CSCC[C@H](N)C(=O)O and 0.000333 ± 5.56e-05 s⁻¹ with CC(C)C[C@H](N)C(=O)O. Moreover, the kcat/Km in the data set with NCC(=O)O turned out to be 222 M⁻¹ s⁻¹; in data set [4], 83.3 M⁻¹ s⁻¹; in the data set with CSCC[C@H](N)C(=O)O it was 1780 M⁻¹ s⁻¹; with CC(C)C[C@H](N)C(=O)O, 2280 M⁻¹ s⁻¹.

The values are drawn from PMC2832577 (Science (New York, N.Y.), 2008).
